According to PMC4461315, “A Mutant Library Approach to Identify Improved Meningococcal Factor H Binding Protein Vaccine Antigens” (PLoS ONE, 2015):

Target: T1, human complement Factor H (human, UniProt P08603 19-1231)
T1 construct: also called FH; human FH; source: bought: Complement Technologies (purified human FH)
Experiment: SPR
Conditions: both partners purified

T1 sequence (P08603 19-1231): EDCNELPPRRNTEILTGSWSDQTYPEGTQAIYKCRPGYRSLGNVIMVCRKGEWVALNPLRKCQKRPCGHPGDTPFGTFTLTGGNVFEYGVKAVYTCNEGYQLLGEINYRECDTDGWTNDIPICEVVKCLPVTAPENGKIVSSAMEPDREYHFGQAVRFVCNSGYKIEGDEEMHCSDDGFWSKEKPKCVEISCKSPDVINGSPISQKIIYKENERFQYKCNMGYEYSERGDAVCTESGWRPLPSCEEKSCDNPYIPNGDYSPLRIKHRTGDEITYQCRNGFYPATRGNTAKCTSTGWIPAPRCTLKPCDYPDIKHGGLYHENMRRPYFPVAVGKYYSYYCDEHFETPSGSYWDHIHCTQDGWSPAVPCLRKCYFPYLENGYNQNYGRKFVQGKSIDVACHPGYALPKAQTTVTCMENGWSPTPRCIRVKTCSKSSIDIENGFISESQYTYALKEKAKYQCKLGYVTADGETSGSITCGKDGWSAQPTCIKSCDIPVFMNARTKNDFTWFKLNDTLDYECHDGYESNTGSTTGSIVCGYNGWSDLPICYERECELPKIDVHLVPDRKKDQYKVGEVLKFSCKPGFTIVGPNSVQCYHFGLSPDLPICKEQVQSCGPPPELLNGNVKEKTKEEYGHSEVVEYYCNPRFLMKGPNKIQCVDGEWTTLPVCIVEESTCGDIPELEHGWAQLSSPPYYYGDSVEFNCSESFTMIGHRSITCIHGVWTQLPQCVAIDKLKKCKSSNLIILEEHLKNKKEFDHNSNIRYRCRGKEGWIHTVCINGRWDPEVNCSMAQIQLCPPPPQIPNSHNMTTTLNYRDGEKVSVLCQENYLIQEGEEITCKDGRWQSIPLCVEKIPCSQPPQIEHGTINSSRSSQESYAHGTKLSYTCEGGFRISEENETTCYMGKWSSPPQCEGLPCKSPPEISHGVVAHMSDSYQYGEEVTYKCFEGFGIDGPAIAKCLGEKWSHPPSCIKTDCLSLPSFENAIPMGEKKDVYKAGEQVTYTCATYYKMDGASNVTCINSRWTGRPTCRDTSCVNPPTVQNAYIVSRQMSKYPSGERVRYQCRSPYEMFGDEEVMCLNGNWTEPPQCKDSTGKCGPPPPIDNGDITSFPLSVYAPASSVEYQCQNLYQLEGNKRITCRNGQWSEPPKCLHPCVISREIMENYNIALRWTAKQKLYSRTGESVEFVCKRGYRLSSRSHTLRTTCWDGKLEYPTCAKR

B1: wild-type FHbp ID 1, soluble recombinant (natural protein)
chain: CSSGGGGVAADIGAGLADALTAPLDHKDKGLQSLTLDQSVRKNEKLKLAAQGAEKTYGNGDSLNTGKLKNDKVSRFDFIRQIEVDGQLITLESGEFQVYKQSHSALTAFQTEQIQDSEHSGKMVAKRQFRIGDIAGEHTSFDKLPEGGRATYRGTAFGSDDAGGKLTYTIDFAAKQGNGKIEHLKSPELNVDLAAADIKPDGKRHAVISGSVLYNQAEKGSYSLGIFGGKAQEVAGSAEVKTVNGIRHIGLAAKQ
notes: also called WT
Kd: 17 nM
